Patent US20240101668A1
Positions count from the first letter of the chain named.

B1: Polypeptide No. 201 (scFv, V domains shown)
VH: QVQLVQSGAEVKKPGASVKVSCKASGGTFSSDGISWVRQAPGQGLEWMGWISAYHGHTNYAQKFQGRVTMTRDTSTSTVYMELSSLRSEDTAVYYCARGGKHSGSHRSYYYGMDVWGQGTTVTVSS
VL: DIQMTQSPSSLSASVGDRVTITCRASHNIGNKLAWYQQKPGKAPKLLIYGATTLQSGVPSRFSGSGSGTDFTLTISSLQPEDFATYYCQQANSFPRTFGPGTKVDIKR
B2: Polypeptide No. 205 (scFv, V domains shown)
VH: QVQLVQSGAEVKKPGSSVKVSCKASGGSFISHTFSWVRQAPGQGLEWMGGIIPISGTANYAQKFQGRVTITADESTSTAYMELSSLRSEDTAVYYCAKGRGQLVGGYFQHWGQGTLVTVSS
VL: DIVMTQSPLSLPVTPGEPASISCRSSQSLLHSNGYNYLDWYLQKPGQSPQLLIYAASSLQSGVPDRFSGSGSGTDFTLKISRVEAEDVGVYYCMQALQTPLTFGQGTRLEIKR
B3: Polypeptide No. 209 (scFv, V domains shown)
VH: EVQLLESGGGLVQPGGSLRLSCAASGFAFSSYVLHWVRQAPGKGLEWVAGIWVDGHNKDYADSVKGRFTISRDNSKNTLYLQMNSLRAEDTAVYYCAREFGAAGSFQHWGQGTLVTVSS
VL: DIQMTQSPSSLSASVGDRVTITCRASQSISTWLAWYQQKPGKAPKLLIYDASKLETGVPSRFSGSGSGTDFTLTISSLQPEDFATYYCQQSYTTPYTFGQGTKVEIKR
B4: Polypeptide No. 211 (scFv, V domains shown)
VH: EVQLLESGGGLVQPGGSLRLSCAASGFTFSNHYMSWVRQAPGKGLEWVSAIGAGGGTYYADSVKGRFTISRDNSKNTLYLQMNSLRAEDTAVYYCAKSSGYSYGRRPFDYWGQGTLVTVSS
VL: DIQMTQSPSSLSASVGDRVTITCRASQGISNNLAWYQQKPGKAPKLLIYAASTLHNGVPSRFSGSGSGTDFTLTISSLQPEDFATYYCQQYGRSPKTFGQGTKVEIKR
B5: Polypeptide No. 220 (scFv, V domains shown)
VH: QVQLVQSGAEVKKPGASVKVSCKASGYTFTGYYMYWVRQAPGQGLEWMGIINPRGGITSYAQRFQGRVTMTRDTSTSTVYMELSSLRSEDTAVYYCARGSTSSGWPNGDMDVWGKGTTVTVSS
VL: B4 VL with S30R, N32D, A34G, T53S, H55Q, N56S, Y91A, G92N, S94F, K96P
B6: Polypeptide No. 224 (scFv, V domains shown)
VH: QVQLVQSGAEVKKPGSSVKVSCKASGYTFTGYYMHWVRQAPGQGLEWMGVINPIYGTANYALKFQGRVTITADESTSTAYMELSSLRSEDTAVYYCAKAISSGWSNDAFDIWGQGTMVTVSS
VL: EIVMTQSPATLSVSPGERATLSCRASQSVSSDFLAWYQQKPGQAPRLLIYDTSSRASGIPARFSGSGSGTEFTLTISSLQSEDFAVYYCQQYAGPPTFGQGTRLEIKR
B7: Polypeptide No. 225 (scFv, V domains shown)
VH: QVQLVQSGAEVKKPGSSVKVSCKASGYTLTELSIHWVRQAPGQGLEWMGGIVPMSGTASYAQKFQGRVTITADESTSTAYMELSSLRSEDTAVYYCARRRDGYNSWGQGTLVTVSS
VL: DIVMTQSPDSLAVSLGERATINCKSSQSLLYGSKNYISWYQQKPGQPPKLLIYSSSTRESGVPDRFSGSGSGTDFTLTISSLQAEDVAVYYCQQYYTTPYTFGQGTKVEIKR
B8: Polypeptide No. 226 (scFv, V domains shown)
VH: QVQLVQSGAEVKKPGASVKVSCKASGYTFTGYYMHWVRQAPGQGLEWMGIIDPSGGSTSYAQKFQGRVTMTRDTSTSTVYMELSSLRSEDTAVYYCARDRSLLWSGVGGMDVWGQGTTVTVSS
VL: B3 VL with S28G, T31N, W32Y, D50G, K53N, E55Q, T56S, T93G, V104L
B9: Polypeptide No. 227 (scFv, V domains shown)
VH: QVQLVQSGAEVKKPGSSVKVSCKASGYTLNELFMHWVRQAPGQGLEWVGGIIPMSGTTFYAQTFQGRVTITADESTSTAYMELSSLRSEDTAVYYCAKGVRQYSYGRYYYGMDVWGQGTLVTVSS
VL: DIQMTQSPSSLSASVGDRVTITCRASQSVSSYLNWYQQKPGKAPKLLIYGASNLQSGVPSRFSGSGSGTDFTLTISSLQPEDFATYYCQQSYTTPWTFGQGTRLEIKR
B10: Polypeptide No. 230 (scFv, V domains shown)
VH: QVQLVQSGAEVKKPGSSVKVSCKASGGTFSSNAINWVRQAPGQGLEWMGGIIPLFGTTNYAQKFQGRVTITADESTSTAYMELSSLRSEDTAVYYCARVLSGWYGTYYFDYWGQGTLVTVSS
VL: EIVMTQSPATLSVSPGERATLSCRASQSVSADYIAWYQQKPGQAPRLLIYDVSTRASGIPARFSGSGSGTEFTLTISSLQSEDFAVYYCQHYGSSQVTFGQGTKVEIKR
B11: Polypeptide No. 232 (scFv, V domains shown)
VH: QVQLVQSGAEVKKPGASVKVSCKASGYTFTSYGIHWVRQAPGQGLEWMGGIIPIFGTASYAQKFQGRVTMTRDTSTSTVYMELSSLRSEDTAVYYCTRSNGIAAAGTHWYFDLWGRGTLVTVSS
VL: DIQMTQSPSSLSASVGDRVTITCRASQNIANSLNWYQQKPGKAPKLLIYAASSLQSGVPSRFSGSGSGTDFTLTISSLQPEDFATYYCQQYSSYPPTFGPGTKVDIKR
B12: Polypeptide No. 236 (scFv, V domains shown)
VH: QVQLVQSGAEVKKPGSSVKVSCKASGGTFSSYAISWVRQAPGQGLEWMGGIIPILGIANYAQKFQGRVTITADESTSTAYMELSSLRSEDTAVYYCAHVDGYGMDVWGQGTTVTVSS
VL: EIVMTQSPATLSVSPGERATLSCRASQSVSSNLAWYQQKPGQAPRLLIYDVSSRATGIPARFSGSGSGTEFTLTISSLQSEDFAVYYCQQLDAYPLTFGGGTKVEIKR
B13: Polypeptide No. 245 (scFv, V domains shown)
VH: QVQLVQSGAEVKKPGSSVKVSCKASGYTFTGFYIHWVRQAPGQGLEWMGGVIPFFSRTIYAQKFQGRVTITADESTSTAYMELSSLRSEDTAVYYCAYGANGHLYGMDAWGQGTTVTVSS
VL: B10 VL with A31S, D32S, I34L, D51G, V52A, S57T, H91Q, G93S, Q96P, V97L
B14: Polypeptide No. 250 (scFv, V domains shown)
VH: QVQLVQSGAEVKKPGSSVKVSCKASGYTLTSFAMHWVRQAPGQGLEWMGRIIPMSGTANYAQKFQGRVTITADESTSTAYMELSSLRSEDTAVYYCASTSPDQYYYGMDVWGQGTTVTVSS
VL: EIVMTQSPATLSVSPGERATLSCRASQSVGSSSLAWYQQKPGQAPRLLIYGASTRATGIPARFSGSGSGTEFTLTISSLQSEDFAVYYCQQYGSSPYTFGQGTKVEIKR
B15: Polypeptide No. 251 (scFv, V domains shown)
VH: QVQLVQSGAEVKKPGSSVKVSCKASGGTFSSDAINWVRQAPGQGLEWMGGIIPIVGTPTYAQKFQGRVTITADESTSTAYMELSSLRSEDTAVYYCAKGLAFGVFDGLDVWGQGTTVTVSS
VL: B14 VL with G30S, S32N, S33Y, G51D, A52V, P96T, Y97L, Q101G
B16: Polypeptide No. 263 (scFv, V domains shown)
VH: QVQLVQSGAEVKKPGSSVKVSCKASGGTFSSYAISWVRQAPGQGLEWMGGIIPIVGVANYAQKLQGRVTITADESTSTAYMELSSLRSEDTAVYYCAKDIGGYPSDAFDIWGQGTTVTVSS
VL: B14 VL with G30S, S33Y, G51D, A52V, Y97I
B17: Polypeptide No. 268 (scFv, V domains shown)
VH: QVQLVQSGAEVKKPGSSVKVSCKASGGTFSTYALSWVRQAPGQGLEWMGGVIPVFGTTDYAHKFQGRVTITADESTSTAYMELSSLRSEDTAVYYCASMIIFGAGGWDAYYFQEWGQGTLVTVSS
VL: B14 VL with G30N, S31N, S32N, S33Q, G51D, A52T, T54S, G93D, S94T
B18: Polypeptide No. 276 (scFv, V domains shown)
VH: QVQLVQSGAEVKKPGSSVKVSCKASGYTFTRFNIHWVRQAPGQGLEWMGWLNPFTGNTGYARKFQGRVTITADESTSTAYMELSSLRSEDTAVYYCASSSSWYGWFDPWGQGTLVTVSS
VL: B12 VL with N32Y, V51T, S53T, L91Y, D92H, A93S, Y94S, L96W, G100Q
B19: Polypeptide No. 281 (scFv, V domains shown)
VH: QVQLVQSGAEVKKPGASVKVSCKASGYTFNSYGISWVRQAPGQGLEWMGIINPTGGSTTYAQKFQGRVTMTRDTSTSTVYMELSSLRSEDTAVYYCAKDPFVMDVWGQGTTVTVSS
VL: B14 VL with G30S, S33Y, G51D, T54A, T57A, G93Y, S95T, V105L
B20: Polypeptide No. 282 (scFv, V domains shown)
VH: QVQLVQSGAEVKKPGASVKVSCKASGGTFSSYAISWVRQAPGQGLEWMGWMNPNSGDTGYAQKFQGRVTMTRDTSTSTVYMELSSLRSEDTAVYYCARDFEGGGWFDPWGQGTLVTVSS
VL: B12 VL with Q27R, V29I, S31D, N32Y, V51A, L91Y, D92Y, A93T, Y94T, G100Q
B21: Polypeptide No. 286 (scFv, V domains shown)
VH: QVQLVQSGAEVKKPGASVKVSCKASGYTFTSYGISWVRQAPGQGLEWMGWISPNSGVTNYAQKFQGRVTMTRDTSTSTVYMELSSLRSEDTAVYYCVSDDYGAFDYWGQGTLVTVSS
VL: B14 VL with G30S, S33Y, G51D, A52V, T57S, G93N, S94N, S95W, V105L

Assays:
[1] = biological target: huFLT3-M227 stably expressed on Ramos cells (human) (UniProt P36888); experiment: FACS on cells
[2] = biological target: huFLT3-T227 stably expressed on Ramos cells (human) (UniProt P36888); experiment: FACS on cells

Row | Binder | FACS geometric mean fold change over Jurkat parental [1] [fold] | FACS geometric mean fold change over Jurkat parental [2] [fold]
1 | B1 | < 2 | < 2
2 | B2 | < 2 | < 2
3 | B3 | < 2 | < 2
4 | B4 | < 2 | < 2
5 | B5 | < 2 | 
6 | B6 |  | < 2
7 | B7 |  | < 2
8 | B8 |  | < 2
9 | B9 | < 2 | < 2
10 | B10 | < 2 | < 2
11 | B11 | < 2 | < 2
12 | B12 | < 2 | < 2
13 | B13 |  | < 2
14 | B14 |  | < 2
15 | B15 | < 2 | < 2
16 | B16 |  | < 2
17 | B17 |  | < 2
18 | B18 |  | < 2
19 | B19 |  | < 2
20 | B20 |  | < 2
21 | B21 |  | < 2
